# Assay results: patent publication US20250051426A1 (IGALPHAN, published 2025)
# Legend:
# [1] = target: T1, E. coli wild-type SHMT (GST fusion protein) (E. coli, UniProt P0A825 1-417); assay: ELISA on immobilized GST fusion protein
# T1 construct: Overexpressed in E. coli as a GST fusion, purified and immobilized on the ELISA plate at 2 ug/ml; not shown: Glutathione-S-transferase (GST) fusion partner
# T1 sequence: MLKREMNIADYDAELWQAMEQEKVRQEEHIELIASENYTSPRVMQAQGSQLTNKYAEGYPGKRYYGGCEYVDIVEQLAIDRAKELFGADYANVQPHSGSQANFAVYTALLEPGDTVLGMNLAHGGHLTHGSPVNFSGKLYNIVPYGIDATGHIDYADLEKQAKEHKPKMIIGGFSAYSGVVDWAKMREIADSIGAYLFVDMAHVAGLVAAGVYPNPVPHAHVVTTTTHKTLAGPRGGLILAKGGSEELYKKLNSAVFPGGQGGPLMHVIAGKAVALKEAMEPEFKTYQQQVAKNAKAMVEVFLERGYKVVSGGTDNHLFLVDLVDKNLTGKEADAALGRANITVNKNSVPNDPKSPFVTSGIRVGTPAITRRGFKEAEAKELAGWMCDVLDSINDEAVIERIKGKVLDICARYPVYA
# [2] = target: T2, C. difficile iPGM (486-509) (C. difficile); assay: X-ray crystal structure of the Fab-peptide complex
# T2 construct: Expressed as a GST fusion; GST was cleaved off and removed before crystallization
# T2 peptide: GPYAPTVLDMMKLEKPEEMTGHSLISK
# E. coli SHMT (25-45) = target: T3, E. coli SHMT (25-45) (E. coli); assay: X-ray crystal structure of the Fab-peptide complex
# T3 construct: Expressed as a GST fusion; GST was cleaved off and removed before crystallization
# T3 peptide: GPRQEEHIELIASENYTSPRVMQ
# E. coli iPGM = target: T4, E. coli iPGM (E. coli, UniProt P37689 1-514, limits assumed); assay: Western blot
# T4 sequence (looked up): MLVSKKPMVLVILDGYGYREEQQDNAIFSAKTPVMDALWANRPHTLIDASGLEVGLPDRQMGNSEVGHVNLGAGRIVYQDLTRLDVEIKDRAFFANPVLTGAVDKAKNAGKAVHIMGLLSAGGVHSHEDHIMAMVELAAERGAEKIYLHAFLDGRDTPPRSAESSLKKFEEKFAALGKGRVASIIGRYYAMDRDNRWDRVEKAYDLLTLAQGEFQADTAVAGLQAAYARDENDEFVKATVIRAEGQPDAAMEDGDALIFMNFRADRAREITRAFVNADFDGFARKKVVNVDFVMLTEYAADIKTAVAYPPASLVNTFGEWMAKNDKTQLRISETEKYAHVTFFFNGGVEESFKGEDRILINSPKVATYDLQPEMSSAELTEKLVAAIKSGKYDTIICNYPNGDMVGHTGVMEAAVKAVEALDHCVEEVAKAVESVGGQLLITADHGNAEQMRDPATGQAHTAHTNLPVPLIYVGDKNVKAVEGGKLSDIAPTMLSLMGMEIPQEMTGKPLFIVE
Binder,binding result [1],also measured
"RS_H007_L001 (antibody, V domains shown, Mainly dimers) VH: EVQLQQSGSELVKSGASVKLSCTVSGFNFTNYYIHWVRQRTEQGLEWIGRIDPENNQTTYAPKFQGKATMTADTSSNTAYLQLTSLTSEDTAVYYCARSTVLDYWGHGTTLTVSS VL: DVLMTQSPASLSVSLGDRATISCRASQSIVHTNGNTYLEWYLQKPGQSPKLLIYKVSNRFSGVPDRFSGSGSGTDFILKISRVEAEDLGVYYCFQGSHVPPTFGGGTKLEVK",binds,
"RS_H000_L000GR Fab (Fab, V domains shown, Fab made by papain digestion of the W27 recombinant IgG expressed in CHO cells; also called IgG W27 Fab) VH: EVQLQQSGSELVKSGASVKLSCTVSGFNFTDYYIHWVRQRTEQGLEWIGRIDPENDETTYAPKFQGKATMTADTSSNTAYLQLTSLTSEDTAVYYCARSTVLDYWGHGTTLTVSS VL: DVLMTQTPLSLPVSLGDQASISCRASQSIVHTNGNTYLEWYLQKPGQSPKLLIYKVSNRFSGVPDRFSGSGSGTDFILKISRVEAEDLGVYYCFQGSHVPPTFGGGTKLEVK",,binding result [2]: binds; binding result (E. coli SHMT (25-45)): binds
"W27G2 antibody (antibody, V domains shown, Mouse IgA produced by a hybridoma; W27G2CHT is the crude hydroxyapatite-purified preparation; W27G2GF is the multimer fraction after gel filtration; also called hybridoma-derived W27G2 antibody; W27G2CHT) VH: EVQLQQSGSELVKSGASVKLSCTVSGFNFTDYYIHWVRQRTEQGLEWIGRIDPENDETTYAPKFQGKATMTADTSSNTAYLQLTSLTSEDTAVYYCARSTVLDYWGHGTTLTVSS VL: DVLMTQTPLSLPVSLGDQASISCRASQSIVHTNGNTYLEWYLQKPGQSPKLLIYKVSNRFSGVPDRFSGSGSGTDFILKISRVEAEDLGVYYCFQGSHVPPTFGGGTKLEVKR",binds,
"W27 antibody (antibody, V domains shown, IgA; also called W27IgA antibody) VH: EVQLQQSGSELVKSGASVKLSCTVSGFNFTDYYIHWVRQRTEQGLEWIGRIDPENDETTYAPKFQGKATMTADTSSNTAYLQLTSLTSEDTAVYYCARSTVLDYWGHGTTLTVSS VL: DVLMTQTPLSLPVSLGDQASISCRASQSIVHTNGNTYLEWYLQKPGQSPKLLIYKVSNRFSGVPDRFSGSGSGTDFILKISRVEAEDLGVYYCFQGSHVPPTFGGGTKLEVK",,binding result (E. coli iPGM): no binding
"RS_H007_L004 (antibody, V domains shown, Mainly dimers) VH: EVQLQQSGSELVKSGASVKLSCTVSGFNFTNYYIHWVRQRTEQGLEWIGRIDPENNQTTYAPKFQGKATMTADTSSNTAYLQLTSLTSEDTAVYYCARSTVLDYWGHGTTLTVSS VL: DVLMTQSPASMSVSLGDRATISCRSSQSIVHTNGNTYLEWYLQKPGQSPKLLIYKVSNRFSGVPDRFSGSGSGTDFILKISRVEAEDLGVYYCFQGSHVPPTFGGGTKLEVK",binds,
"RS_H000_L005 (antibody, V domains shown, Mainly dimers) VH: EVQLQQSGSELVKSGASVKLSCTVSGFNFTDYYIHWVRQRTEQGLEWIGRIDPENDETTYAPKFQGKATMTADTSSNTAYLQLTSLTSEDTAVYYCARSTVLDYWGHGTTLTVSS VL: DVLMTQSPASLSVSLGDRATISCRSSQSIVHTNGNTYLEWYLQKPGQSPKLLIYKVSNRFSGVPDRFSGSGSGTDFILKISRVEAEDLGVYYCFQGSHVPPTFGGGTKLEVK",binds,
"RS_H000_L001 (antibody, V domains shown, Mainly dimers by non-reduced SDS-PAGE) VH: EVQLQQSGSELVKSGASVKLSCTVSGFNFTDYYIHWVRQRTEQGLEWIGRIDPENDETTYAPKFQGKATMTADTSSNTAYLQLTSLTSEDTAVYYCARSTVLDYWGHGTTLTVSS VL: DVLMTQSPASLSVSLGDRATISCRASQSIVHTNGNTYLEWYLQKPGQSPKLLIYKVSNRFSGVPDRFSGSGSGTDFILKISRVEAEDLGVYYCFQGSHVPPTFGGGTKLEVK",binds,
"RS_H007_L002 (antibody, V domains shown, Mainly dimers) VH: EVQLQQSGSELVKSGASVKLSCTVSGFNFTNYYIHWVRQRTEQGLEWIGRIDPENNQTTYAPKFQGKATMTADTSSNTAYLQLTSLTSEDTAVYYCARSTVLDYWGHGTTLTVSS VL: DVLMTQSPASLSVSLGDRVTISCRASQSIVHTNGNTYLEWYLQKPGQSPKLLIYKVSNRFSGVPDRFSGSGSGTDFILKISRVEAEDLGVYYCFQGSHVPPTFGGGTKLEVK",binds,
"RS_H007_L005 (antibody, V domains shown, Mainly dimers) VH: EVQLQQSGSELVKSGASVKLSCTVSGFNFTNYYIHWVRQRTEQGLEWIGRIDPENNQTTYAPKFQGKATMTADTSSNTAYLQLTSLTSEDTAVYYCARSTVLDYWGHGTTLTVSS VL: DVLMTQSPASLSVSLGDRATISCRSSQSIVHTNGNTYLEWYLQKPGQSPKLLIYKVSNRFSGVPDRFSGSGSGTDFILKISRVEAEDLGVYYCFQGSHVPPTFGGGTKLEVK",binds,
